Measurements as given in the supplement of paper PMC9876800.

Tested on: peptide library, one residue held at a place counted from the S/T acceptor
Assay: relative phosphorylation of the sub-library (ratio to the mean residue at this position); higher = residue favoured
Details: human
Procedure, shortened: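 Purified recombinant kinases, either human or orthologue constructs, were incubated in 384-well plates with biotinylated degenerate peptide sub-libraries. Each sub-library fixed one residue at one position around a central Ser/Thr. Peptides at 50 μM and 50 μM ATP spiked with γ-32P-ATP were used for 90 min under kinase-specific conditions, and spots on streptavidin membranes were phosphorimaged and quantified by densitometry. Relative sub-library phosphorylation is expressed as a ratio to the mean residue at that position.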

Sequence of RIPK4, construct: aa1-300 (P57078 1-300, looked up): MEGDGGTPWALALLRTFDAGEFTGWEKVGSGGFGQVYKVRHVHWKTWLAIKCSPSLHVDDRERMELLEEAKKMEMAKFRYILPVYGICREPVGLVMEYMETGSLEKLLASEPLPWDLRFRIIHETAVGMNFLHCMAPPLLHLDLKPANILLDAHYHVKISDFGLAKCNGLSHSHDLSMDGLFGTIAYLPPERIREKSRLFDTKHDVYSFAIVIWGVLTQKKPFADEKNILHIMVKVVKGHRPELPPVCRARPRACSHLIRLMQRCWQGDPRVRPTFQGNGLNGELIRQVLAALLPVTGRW
Sequence of SGK1, construct: aa61-end (O00141 61-431, looked up): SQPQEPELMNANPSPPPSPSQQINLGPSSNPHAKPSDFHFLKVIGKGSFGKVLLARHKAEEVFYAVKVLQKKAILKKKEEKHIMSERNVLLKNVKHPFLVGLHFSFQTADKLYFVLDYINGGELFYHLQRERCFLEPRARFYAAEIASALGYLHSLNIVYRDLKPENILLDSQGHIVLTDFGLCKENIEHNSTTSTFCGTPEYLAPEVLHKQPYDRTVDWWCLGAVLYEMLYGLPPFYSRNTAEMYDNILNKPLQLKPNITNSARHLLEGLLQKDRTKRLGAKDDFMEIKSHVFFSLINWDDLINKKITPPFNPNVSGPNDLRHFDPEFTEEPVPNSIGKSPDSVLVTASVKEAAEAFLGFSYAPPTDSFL
Sequence of CHUK, construct: Full length (O15111 whole entry, looked up): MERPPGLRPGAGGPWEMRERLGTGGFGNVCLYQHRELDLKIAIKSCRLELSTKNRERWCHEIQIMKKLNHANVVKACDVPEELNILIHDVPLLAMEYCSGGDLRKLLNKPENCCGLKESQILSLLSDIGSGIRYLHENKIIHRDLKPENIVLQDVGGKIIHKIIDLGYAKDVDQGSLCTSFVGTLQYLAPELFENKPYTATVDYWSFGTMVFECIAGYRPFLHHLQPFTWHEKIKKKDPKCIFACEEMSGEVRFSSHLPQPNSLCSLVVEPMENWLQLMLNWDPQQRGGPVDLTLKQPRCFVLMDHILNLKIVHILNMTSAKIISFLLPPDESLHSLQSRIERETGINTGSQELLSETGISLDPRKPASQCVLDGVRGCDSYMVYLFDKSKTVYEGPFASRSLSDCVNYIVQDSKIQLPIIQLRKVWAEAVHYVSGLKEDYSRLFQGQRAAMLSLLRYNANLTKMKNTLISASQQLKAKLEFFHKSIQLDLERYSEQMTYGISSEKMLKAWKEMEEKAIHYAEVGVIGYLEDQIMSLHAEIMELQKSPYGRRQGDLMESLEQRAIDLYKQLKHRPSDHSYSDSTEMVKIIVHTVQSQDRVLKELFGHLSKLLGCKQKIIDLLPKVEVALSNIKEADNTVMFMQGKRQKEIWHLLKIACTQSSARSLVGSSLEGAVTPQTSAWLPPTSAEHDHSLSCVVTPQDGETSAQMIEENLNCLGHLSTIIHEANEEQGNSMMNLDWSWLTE

CHUK, construct: Full length (from UniProt O15111)
relative phosphorylation
Details	at +1	at +2	at +3	at +4	at -1	at -2	at -3	at -4	at -5
A fixed	0.486	0.954	0.902	0.978	0.716	1.1	0.777	1.15	1.29
D fixed	0.518	1.23	1.9	1.66	1.19	0.571	1.27	2.17	2.57
E fixed	0.61	1.26	2.02	1.55	1.11	1.1	1.53	2.15	2.29
F fixed	1.22	0.635	0.576	0.717	0.688	2	0.809	0.602	0.657
G fixed	1.18	1.55	1.48	1.43	0.615	0.548	1.12	1.55	1.4
H fixed	1.01	1.34	1.14	1.17	1.17	1.23	1.15	0.888	1.12
I fixed	1.94	0.78	0.548	0.769	0.346	0.874	0.365	0.49	0.395
K fixed	0.28	0.408	0.358	0.746	1.5	0.25	0.875	0.417	0.556
L fixed	1.68	0.726	0.688	0.724	0.702	1.59	0.408	0.552	0.548
M fixed	1.86	0.982	0.772	0.918	0.962	1.06	0.784	0.79	0.591
N fixed	0.931	1.9	1.28	1.17	1.58	1.35	1.69	1.17	1.22
P fixed	0.282	1.12	1.16	1.24	1.54	0.68	2.06	1.87	0.981
Q fixed	0.729	1.25	1.24	1.13	1.47	0.804	1.18	0.978	0.889
R fixed	0.162	0.27	0.26	0.177	0.641	0.176	0.728	0.314	0.476
V fixed	1.46	1.1	0.636	0.667	0.688	0.644	0.567	0.547	0.664
W fixed	1.29	0.756	1.04	0.978	0.784	0.663	0.704	0.693	0.791
Y fixed	1.36	0.75	1.01	0.977	1.31	2.36	0.991	0.68	0.562
pThr fixed	0.978	1.06	1.08	1.62	0.755	1.24	1.4	1.56	1.06
pTyr fixed	1.1	1.25	0.908	1.08	1.55	5.95	2.02	1.32	0.984

SGK1, construct: aa61-end (from UniProt O00141)
relative phosphorylation
Details	at +1	at +2	at +3	at +4	at -1	at -2	at -3	at -4	at -5
A fixed	0.603	1.03	0.911	1.01	0.815	1.22	0.388	1.06	0.955
D fixed	0.457	0.581	1.1	0.881	0.63	0.242	0.147	0.679	0.427
E fixed	0.461	0.537	1.14	1.03	0.483	0.227	0.157	0.749	0.453
F fixed	2.32	0.768	0.975	0.795	0.768	0.493	0.16	0.613	0.62
G fixed	0.766	1.06	1.33	1.17	1.73	0.758	0.268	1.04	0.948
H fixed	0.889	1.6	1.35	1.33	1.25	0.946	0.757	1.01	0.99
I fixed	1.45	1.18	0.784	0.863	0.395	0.28	0.145	0.641	0.7
K fixed	0.861	0.906	1.17	1.05	1.38	3.57	1.4	1.98	2.38
L fixed	1.22	1.27	0.975	0.702	0.751	0.401	0.149	0.699	0.617
M fixed	1.49	0.948	0.833	0.936	1.05	0.335	0.157	0.838	0.736
N fixed	0.881	1.13	0.976	1.22	1.52	0.55	0.245	0.825	0.852
P fixed	0.859	0.94	0.921	1.31	1.25	0.388	0.296	1.17	0.882
Q fixed	0.974	0.674	0.939	0.921	0.893	0.544	0.443	0.902	0.744
R fixed	1.01	1.58	1.01	1.03	1.64	5.91	11.7	2.89	3.67
V fixed	1.16	1.01	0.753	0.737	0.471	0.352	0.152	0.693	0.675
W fixed	0.7	0.737	0.892	1.1	0.692	0.332	0.225	0.59	0.626
Y fixed	0.906	1.05	0.934	0.912	1.28	0.452	0.219	0.625	0.721
pThr fixed	0.747	0.655	0.926	1.36	0.306	0.367	0.24	0.711	0.556
pTyr fixed	0.806	1.04	1.43	1.54	0.752	0.319	0.232	0.574	0.722

RIPK4, construct: aa1-300 (from UniProt P57078)
relative phosphorylation
Details	at +1	at +2	at +3	at +4	at -1	at -2	at -3	at -4	at -5
A fixed	0.786	0.77	0.723	0.883	0.722	0.944	1.01	0.988	1.04
D fixed	0.444	0.547	0.572	0.75	1.76	1.53	1.02	1.45	1.43
E fixed	0.458	0.509	0.485	0.618	0.809	1.36	0.853	0.96	0.926
F fixed	1.86	1.04	1.37	1.16	0.6	0.863	0.994	0.822	1.04
G fixed	1.04	0.738	0.909	0.918	0.585	1.33	0.969	1.07	0.944
H fixed	0.776	1.18	0.859	1.07	1.48	1.37	1.14	1.04	1.07
I fixed	1.77	0.843	1.78	1.05	0.841	0.635	0.848	0.861	0.876
K fixed	0.691	1.66	0.792	1.25	1.63	0.64	0.919	0.9	1.09
L fixed	1.25	0.978	1.5	1.01	0.858	0.628	0.941	0.819	0.926
M fixed	1.71	1.11	1.04	0.831	0.815	0.789	0.996	0.91	0.909
N fixed	0.665	0.943	0.725	0.726	1.52	1.24	0.837	1.26	0.941
P fixed	0.376	0.62	0.706	1.32	0.461	0.502	1.11	0.844	0.922
Q fixed	1.19	0.924	0.779	0.802	1.02	0.898	0.976	0.888	0.856
R fixed	1.11	2.28	0.932	1.29	1.33	0.986	1.43	0.936	1.03
V fixed	1.26	0.815	1.09	0.798	1.01	0.618	0.723	0.874	0.866
W fixed	0.781	0.988	1.45	1.41	0.59	1.06	1.24	1.39	1.24
Y fixed	0.836	1.07	1.3	1.13	0.963	1.6	0.998	0.977	0.898
pThr fixed	0.839	0.707	0.778	0.887	1.03	1.04	1.07	1.17	1.23
pTyr fixed	0.524	0.726	0.725	0.802	0.897	0.817	0.967	0.967	1.09

PRKCB, construct: Full length (from UniProt P05771)
relative phosphorylation
Details	at +1	at +2	at +3	at +4	at -1	at -2	at -3	at -4	at -5
A fixed	0.614	0.584	0.815	1.08	1.16	1.17	0.836	1.3	1.35
D fixed	0.203	0.219	0.509	0.604	0.516	0.531	0.379	0.694	0.677
E fixed	0.288	0.177	0.503	0.546	0.489	0.468	0.438	0.654	0.676
F fixed	0.881	0.35	0.602	0.636	0.435	0.597	0.639	0.72	0.947
G fixed	0.585	0.365	1.09	1.22	1.65	1.37	0.95	1.57	1.45
H fixed	0.861	1.39	1.36	1.37	1.24	1.23	1.47	1.17	1.26
I fixed	1.05	0.413	0.529	0.559	0.214	0.323	0.214	0.393	0.452
K fixed	2.49	3.97	2.36	2.46	2.15	1.93	1.91	1.64	1.67
L fixed	0.864	0.469	0.796	0.644	0.563	0.448	0.371	0.517	0.71
M fixed	1.61	0.604	0.68	0.705	0.779	0.662	0.606	0.898	0.684
N fixed	0.691	0.909	1.09	1.13	1.34	1.52	1.07	1.11	1.04
P fixed	0.289	0.305	0.606	1.27	1.09	0.87	0.983	1.2	1.22
Q fixed	1.45	0.727	1.1	1.2	1.04	1.47	1.08	1.24	1
R fixed	2.18	4.58	2.22	1.46	2.25	2.3	4.21	1.78	1.44
V fixed	1.11	0.443	0.627	0.683	0.496	0.462	0.354	0.504	0.695
W fixed	0.813	0.627	1.03	0.83	0.556	0.933	0.68	0.933	1.19
Y fixed	1.03	0.86	1.07	0.618	1.04	0.717	0.805	0.679	0.531
pThr fixed	0.842	0.433	0.621	0.672	0.372	0.756	0.666	0.932	0.844
pTyr fixed	0.519	0.272	0.651	0.434	0.732	0.712	0.693	0.806	0.983
